Source: patent US20070071744A1 (published 2007)
Ends that are not written are not given here.

Columns and labels:
Experiment in all cases: PepSpot peptide array
[1] = biological target: T1, peptide 110 (human)
T1 peptide: Ac-SVAEFSEATAELT
How it was run: (§1)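 Peptides synthesized on cellulose membranes were blocked, then probed with a primary antibody followed by an HRP-labelled secondary, or with an HRP-labelled primary alone. After T-TBS/TBS washes, chemiluminescence was recorded as light units per peptide as single measurements. A secondary-only incubation served as the non-specific binding control.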

[2] = biological target: T2, peptide 74 (human)
T2 peptide: Ac-KEGDPAPYKNPER
How it was run: as §1

[3] = biological target: T3, peptide 32 (human)
T3 peptide: Ac-SSSRYQDQAVLFI
How it was run: as §1

[4] = biological target: T4, peptide 35 (human)
T4 peptide: Ac-DQAVLFIPAMKRS
How it was run: as §1

LU (Light Units) [1]: 71 LU
LU (Light Units) [2]: 8 LU
LU (Light Units) [3]: 319 LU
LU (Light Units) [4]: 186 LU
B1: monoclonal antibody hGP 5C4 (antibody, V domains shown)
VH: EVKLQESGGGLVQPGRSLKLSCTASGFTFSDYFMSWVRQAPTRGLEWVASISSGGASAYWRDSVKGRFTISRDNAKSALYLQMDSLRSEDTATYFCARGELDFDYWGQGVMVAVSS
VL: ADPNSTLLSASVGDRVTLNCTASQNVYKNLAWYQQKLGEAPRLLLYSANSQTGIPSRFSGSGSGPDFTLTISSLQPEDVASYFCQQYYSGNTFGAGTKLELKR
notes: Rat hybridoma antibody (Lou/C rats), heavy chain gamma 2a, light chain kappa; also called ab 5C4; anti-GPVI mAb 5C4
